Assays:
[1] = biological target: T1, Recombinant mouse MD2 (Beijing ABIOCENTER) (mouse, UniProt Q9JHF9 19-160); assay: SPR
T1 sequence (looked up): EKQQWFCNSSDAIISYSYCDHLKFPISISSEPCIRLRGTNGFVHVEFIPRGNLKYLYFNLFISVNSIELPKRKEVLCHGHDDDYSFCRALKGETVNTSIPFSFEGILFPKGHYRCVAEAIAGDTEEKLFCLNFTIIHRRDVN

[2] = biological target: T2, Recombinant mouse TLR4 (R&D system) (mouse, UniProt Q9QUK6 26-638); assay: SPR
T2 sequence (looked up): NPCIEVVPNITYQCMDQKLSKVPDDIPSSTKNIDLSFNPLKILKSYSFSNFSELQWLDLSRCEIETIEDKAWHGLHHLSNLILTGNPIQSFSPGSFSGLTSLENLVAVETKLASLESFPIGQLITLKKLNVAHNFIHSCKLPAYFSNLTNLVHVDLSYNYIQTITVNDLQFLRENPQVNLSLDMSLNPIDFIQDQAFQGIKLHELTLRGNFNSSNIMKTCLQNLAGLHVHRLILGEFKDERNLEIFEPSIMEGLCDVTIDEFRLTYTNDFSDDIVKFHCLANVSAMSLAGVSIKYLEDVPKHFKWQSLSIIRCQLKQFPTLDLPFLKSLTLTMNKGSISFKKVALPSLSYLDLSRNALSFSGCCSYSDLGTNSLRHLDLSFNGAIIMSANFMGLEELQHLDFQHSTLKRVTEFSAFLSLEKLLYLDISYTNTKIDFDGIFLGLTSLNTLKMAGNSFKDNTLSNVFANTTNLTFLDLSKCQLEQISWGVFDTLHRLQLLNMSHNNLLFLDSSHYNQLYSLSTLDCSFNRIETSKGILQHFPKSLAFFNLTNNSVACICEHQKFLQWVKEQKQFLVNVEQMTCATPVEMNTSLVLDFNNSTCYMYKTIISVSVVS

B1: Mouse serum amyloid A1 (residues 19-122), recombinant (natural protein, UniProt P05366 19-122, looked up)
chain: GGFFSFVHEAFQGAGDMWRAYTDMKEANWKNSDKYFHARGNYDAAQRGPGGVWAAEKISDGREAFQEFFGRGHEDTIADQEANRHGRSGKDPNYYRPPGLPDKY
[1]
  Kd: 123 nM
[2]
  Kd: 497 nM

Reference: paper PMC8938331 (Molecular Metabolism, 2022)
